Measurements: patent US20110305750

Test system: GST-MT1-MMP cytoplasmic tail fusion protein

## recombinant Src kinase
  tyrosine phosphorylation of GST-MT in an in vitro phosphorylation assay (western blot): Src-mediated tyrosine phosphorylation of GST-MT
